Patent publication US20120070451

System: Cavβ2 (Ca2+ beta2 channel accessory subunit), endogenous, mouse heart

In the case of recombinant active Akt, the “in vitro kinase assay: Cavβ2-immunoprecipitates from cardiac homogenates incubated with recombinant active Akt and [γ-32]ATP” value was “A band corresponding to phosphorylated Cavβ2 was detected only in the presence of the kinase”.
